Here are results for five molecules from patent publication US20150259408A1 (PROTHENA BIOSCIENCES, published 2015).

Assay [1] has as its target T1, human LAMA4 LG4-5 fragment displayed on 293 cells (pDisplay) (human, UniProt Q16363 1453-1821, limits assumed).
T1 sequence: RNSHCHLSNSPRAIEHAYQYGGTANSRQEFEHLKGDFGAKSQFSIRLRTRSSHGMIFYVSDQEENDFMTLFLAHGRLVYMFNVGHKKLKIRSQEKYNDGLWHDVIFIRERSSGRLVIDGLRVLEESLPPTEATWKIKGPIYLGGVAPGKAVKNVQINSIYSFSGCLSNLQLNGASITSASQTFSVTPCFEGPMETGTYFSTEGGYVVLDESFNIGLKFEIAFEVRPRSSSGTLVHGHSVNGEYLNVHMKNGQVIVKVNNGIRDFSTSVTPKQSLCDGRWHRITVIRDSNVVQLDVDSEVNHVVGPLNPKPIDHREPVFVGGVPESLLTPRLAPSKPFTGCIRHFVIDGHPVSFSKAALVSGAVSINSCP
Nature of the assay: flow cytometry, serial dilution on 293 cells displaying LG4-5. How it is done: Chimeric 15F7, H1L1, H1L2, H2L1, H2L2, and buffer alone were tested for their ability to bind to LAMA4-fragment-displaying cells. To test LAMA4 binding capacity, serially diluted antibodies were pre-incubated with human 293 cells displaying LG4-5, followed by anti-human-650 secondary antibody incubation as described in the Materials and Methods. Fluorescent signal was assessed via flow cytometric analyses and plotted as mean fluorescence intensity (MFI) as shown in FIG. 8.
(§1) Human LAMA4 G-domains 1-5 and variants were cloned into pDisplay expression construct (Life Technologies) and transiently transfected into 293 cells using standard procedures. Anti-LAMA4 antibodies were incubated with cells for 30 min at 4° C. and followed by anti-mouse-650 for 30 minutes at 4° C. Cells were analyzed for anti-laminin binding by flow cytometry using standard procedures.

Assay [2] concerns the target T2, LAMA4 / purified His-LAMA4 (species not stated).
T2 chain: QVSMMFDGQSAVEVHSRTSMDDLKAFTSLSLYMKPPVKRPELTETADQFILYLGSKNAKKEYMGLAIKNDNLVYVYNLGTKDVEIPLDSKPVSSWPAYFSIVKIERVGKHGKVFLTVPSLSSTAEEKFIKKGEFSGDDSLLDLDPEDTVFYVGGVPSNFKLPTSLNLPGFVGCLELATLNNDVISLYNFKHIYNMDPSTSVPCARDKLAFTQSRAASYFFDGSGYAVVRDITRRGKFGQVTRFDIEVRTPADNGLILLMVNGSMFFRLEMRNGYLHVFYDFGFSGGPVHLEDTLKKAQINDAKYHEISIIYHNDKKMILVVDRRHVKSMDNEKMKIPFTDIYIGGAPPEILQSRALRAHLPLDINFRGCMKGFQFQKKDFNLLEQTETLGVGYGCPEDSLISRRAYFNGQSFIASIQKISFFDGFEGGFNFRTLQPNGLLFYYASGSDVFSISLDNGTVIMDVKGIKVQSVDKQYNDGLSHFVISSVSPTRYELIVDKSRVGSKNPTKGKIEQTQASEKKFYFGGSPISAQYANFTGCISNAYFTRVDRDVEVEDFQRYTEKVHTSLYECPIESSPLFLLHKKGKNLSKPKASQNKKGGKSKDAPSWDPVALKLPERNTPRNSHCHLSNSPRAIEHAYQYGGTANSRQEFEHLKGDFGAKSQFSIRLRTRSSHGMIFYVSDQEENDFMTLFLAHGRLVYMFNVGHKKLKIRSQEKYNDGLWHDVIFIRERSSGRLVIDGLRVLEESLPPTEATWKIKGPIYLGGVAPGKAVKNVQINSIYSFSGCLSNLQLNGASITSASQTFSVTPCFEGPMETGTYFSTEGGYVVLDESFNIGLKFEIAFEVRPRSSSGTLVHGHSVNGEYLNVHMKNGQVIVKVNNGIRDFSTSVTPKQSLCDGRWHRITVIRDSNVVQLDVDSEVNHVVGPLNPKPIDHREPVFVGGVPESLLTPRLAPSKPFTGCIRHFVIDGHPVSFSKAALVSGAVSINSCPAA
Nature of the assay: SPR (Biacore), full kinetic analysis; species of LAMA4 not stated.

The target of assay [3] is T3, human LAMA4 LG1-3 fragment displayed on 293 cells (pDisplay) (human, UniProt Q16363 830-1430, limits assumed).
T3 sequence: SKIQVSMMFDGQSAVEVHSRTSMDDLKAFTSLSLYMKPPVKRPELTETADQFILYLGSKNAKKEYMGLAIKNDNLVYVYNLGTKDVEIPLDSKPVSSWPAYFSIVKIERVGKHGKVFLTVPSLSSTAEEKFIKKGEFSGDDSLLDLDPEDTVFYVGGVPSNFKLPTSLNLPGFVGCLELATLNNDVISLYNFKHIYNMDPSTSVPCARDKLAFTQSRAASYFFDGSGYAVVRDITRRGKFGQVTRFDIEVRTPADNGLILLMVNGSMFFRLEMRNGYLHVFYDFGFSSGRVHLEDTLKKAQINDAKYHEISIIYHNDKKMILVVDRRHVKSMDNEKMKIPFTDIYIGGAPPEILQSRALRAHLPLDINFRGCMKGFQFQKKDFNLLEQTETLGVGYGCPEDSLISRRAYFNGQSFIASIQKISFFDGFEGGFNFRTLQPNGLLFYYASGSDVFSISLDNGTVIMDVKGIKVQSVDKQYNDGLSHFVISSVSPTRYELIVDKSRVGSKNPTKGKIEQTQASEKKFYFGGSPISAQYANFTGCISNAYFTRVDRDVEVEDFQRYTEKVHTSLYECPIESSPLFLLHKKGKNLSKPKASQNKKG
Nature of the assay: flow cytometry on 293 cells displaying LAMA4 fragments. The method, then:
(§2) The specific binding of the chimeric 15F7, […] H1L2, H2L1, and H2L2 antibodies to the LG4-5 modules of the G domain of LAMA4 was tested by assessing the antibodies' ability to stain LAMA4-fragment-displaying 293 cells by flow cytometry, as shown in FIG. 9. Each of the antibodies was able to specifically bind 293 cells displaying LG1-5 and LG4-5, but not LG1-3.
as §1

Assay [4] concerns the target T4, human LAMA4 G domain LG1-5 displayed on 293 cells (pDisplay) (human, UniProt Q16363 830-1821, limits assumed).
T4 construct: The pDisplay vector parts (leader, tags, PDGFR transmembrane anchor) are not described; also called LAMA4-displaying 293 cells; Human LAMA4 G-domains 1-5
T4 sequence: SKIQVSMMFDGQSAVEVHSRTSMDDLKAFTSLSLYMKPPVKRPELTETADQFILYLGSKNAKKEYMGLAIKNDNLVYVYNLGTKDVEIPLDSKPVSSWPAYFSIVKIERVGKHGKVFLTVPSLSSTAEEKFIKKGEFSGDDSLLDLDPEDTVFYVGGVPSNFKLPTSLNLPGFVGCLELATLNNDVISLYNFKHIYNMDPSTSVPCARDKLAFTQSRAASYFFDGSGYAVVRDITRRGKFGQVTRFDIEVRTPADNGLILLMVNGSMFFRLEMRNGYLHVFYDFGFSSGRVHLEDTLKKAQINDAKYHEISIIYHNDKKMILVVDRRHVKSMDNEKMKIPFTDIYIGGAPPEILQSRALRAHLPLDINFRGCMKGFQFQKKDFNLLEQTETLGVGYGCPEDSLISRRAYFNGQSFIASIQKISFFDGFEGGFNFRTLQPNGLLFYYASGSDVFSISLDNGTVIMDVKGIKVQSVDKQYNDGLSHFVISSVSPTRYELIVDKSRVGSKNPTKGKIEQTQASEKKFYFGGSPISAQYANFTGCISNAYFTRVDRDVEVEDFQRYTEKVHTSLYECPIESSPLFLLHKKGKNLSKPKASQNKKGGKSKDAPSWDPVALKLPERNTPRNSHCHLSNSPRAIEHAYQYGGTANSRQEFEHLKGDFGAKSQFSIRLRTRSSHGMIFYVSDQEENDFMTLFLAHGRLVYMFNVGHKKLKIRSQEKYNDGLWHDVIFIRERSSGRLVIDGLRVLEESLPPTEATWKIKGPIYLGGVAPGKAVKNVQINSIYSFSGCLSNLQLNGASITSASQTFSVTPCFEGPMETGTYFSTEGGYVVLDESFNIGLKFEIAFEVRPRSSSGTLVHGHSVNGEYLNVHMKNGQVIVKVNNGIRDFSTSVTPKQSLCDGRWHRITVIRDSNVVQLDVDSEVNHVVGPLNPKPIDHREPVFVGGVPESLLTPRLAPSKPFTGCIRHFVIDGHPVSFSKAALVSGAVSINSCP
The assay is described as above. The method, then: as §2, §1

Residue numbers refer to the chain shown, from its start.

B1: humanized 15F7 variant H1L1 (Hu15F7VHv1/Hu15F7VLv1) (antibody, V domains shown)
VH: EVQLQQSGAEVKKPGSSVKLSCKASGYTFTSYGLSWVKQRAGQGLEWIGEIFPRSGNTYYNEKFKGKATLTADKSSSTAYMELRSLRSEDTAVYFCARGVRSPGAMDYWGQGTLVTVSS
VL: DIQMTQSSSSLSASVGDRVTITCKASEDIYNRLAWYQQKPGNAPRLLISGATSLETGVPSRFSGSGSGKDYTLTISSLQTEDFATYYCQQYWSIPYTFGGGTKLEIKR
notes: They are human, since it was captured by a goat anti-human Fc sensor; also called VHv1/VLv1
Regarding B1, the binding result in assay [1] was “binds”. Further, in assay [2], the Kd was 0.12 nM, the off-rate (koff) came to 0.000183 s⁻¹ and the on-rate (kon) is 1.5e+06 M⁻¹ s⁻¹. In addition, in assay [3], the binding result was “no binding”. Further, the binding result in assay [4] is “binds”.

B2: chimeric 15F7 (antibody, V domains shown)
VH: B1 VH with E1Q, A9T, V11L, K12A, K13R, S16A, S17A, R87T, T91S, L114S
VL: B1 VL with L11F, A13V, V15L, T74S, S76T, F83V, K103N
B2: in assay [2], the dissociation constant (Kd) worked out at 0.1 nM, the dissociation rate constant (koff) came out at 0.000151 s⁻¹ and the kon came out at 1.5e+06 M⁻¹ s⁻¹. In addition, the binding result in assay [3] is “no binding”.

B3: humanized 15F7 variant H2L1 (Hu15F7VHv2/Hu15F7VLv1) (antibody, V domains shown)
VH: B1 VH with A41P, L70I
VL: B1 VL
notes: also called VHv2/VLv1
Turning to B3, the binding result in assay [1] is recorded as “binds”; in assay [3] it was “no binding”; in assay [4], “binds”. This molecule came in with a Kd in assay [2] of 0.13 nM. In assay [2], the koff was 0.000205 s⁻¹. In assay [2], this molecule displayed an on-rate constant (kon) of 1.56e+06 M⁻¹ s⁻¹.

B4: humanized 15F7 variant H2L2 (Hu15F7VHv2/Hu15F7VLv2) (antibody, V domains shown)
VH: B1 VH with A41P, L70I
VL: B1 VL with S8P, R45K, Y71F, T80P, L104V
notes: also called VHv2/VLv2
Turning to B4, the binding result in assay [1] is listed as “binds”; in assay [3], “no binding”; in assay [4], “binds”.

B5: humanized 15F7 variant H1L2 (Hu15F7VHv1/Hu15F7VLv2) (antibody, V domains shown)
VH: B1 VH
VL: B1 VL with S8P, R45K, Y71F, T80P, L104V
notes: also called VHv1/VLv2
On to B5, for which the binding result is “binds” in assay [1], “no binding” in assay [3] and “binds” in assay [4].
